Data reported in patent US20210179716A1 (Pfizer, published 2021).
Substitutions are numbered along the chain they refer to. Like-named read-outs stand apart in the source and are kept apart here.

Key:
[1] = molecular target: T1, human CD47 protein (human, UniProt Q08722 19-139, limits assumed); assay: KD; method not stated
T1 construct: Soluble protein used for the KD measurements; construct not described; also called hCD47; CD47 (human)

[2] = molecular target: T2, cynomolgus CD47 protein (cynomolgus monkey, UniProt A0A2K5X523 19-139); assay: KD; method not stated
T2 construct: also called cyCD47; Cyno CD47

[3] = molecular target: T1, human CD47 protein; assay: half-life of the complex; method not stated
[4] = molecular target: T2, cynomolgus CD47 protein; assay: half-life of the complex; method not stated
[5] = molecular target: T3, human PD-L1 protein (human, UniProt Q9NZQ7 19-238); assay: KD; method not stated
T3 construct: Soluble protein used for the KD measurements; construct not described; also called hPD-L1; CD274

[6] = molecular target: T4, cynomolgus PD-L1 protein (cynomolgus monkey, UniProt G7PSE7 19-238); assay: KD; method not stated
T4 construct: also called cyPD-L1; Cyno PD-L1

[7] = molecular target: T3, human PD-L1 protein; assay: KD; method not stated; remark: listed apart in the source
[8] = molecular target: T4, cynomolgus PD-L1 protein; assay: KD; method not stated; remark: listed apart in the source
[9] = molecular target: T3, human PD-L1 protein; assay: half-life of the complex; method not stated
[10] = molecular target: T4, cynomolgus PD-L1 protein; assay: half-life of the complex; method not stated
[11] = molecular target: T5, mouse PD-L1 protein (mouse, UniProt Q9EP73 19-238); assay: column 'Cross with mouse?'; method not stated
T5 construct: also called mPD-L1

[12] = molecular target: T5, mouse PD-L1 protein; assay: KD; method not stated
[13] = molecular target: T3, human PD-L1 protein; assay: KD; method not stated; remark: listed apart in the source
[14] = molecular target: T4, cynomolgus PD-L1 protein; assay: KD; method not stated; remark: listed apart in the source
[15] = molecular target: T3, human PD-L1 protein; assay: half-life of the complex; method not stated; remark: listed apart in the source
[16] = molecular target: T4, cynomolgus PD-L1 protein; assay: half-life of the complex; method not stated; remark: listed apart in the source
[17] = molecular target: T2, cynomolgus CD47 protein; assay: KD; method not stated; remark: listed apart in the source
[18] = molecular target: T6, mouse CD47 protein (mouse, UniProt Q61735 19-140, limits assumed); assay: column 'Cross-react with mouse'; method not stated
T6 sequence (looked up): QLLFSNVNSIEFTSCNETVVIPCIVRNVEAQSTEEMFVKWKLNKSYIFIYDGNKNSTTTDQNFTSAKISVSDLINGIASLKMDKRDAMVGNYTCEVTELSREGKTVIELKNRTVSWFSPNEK

[19] = molecular target: T1, human CD47 protein; assay: KD; method not stated; remark: listed apart in the source
[20] = molecular target: T2, cynomolgus CD47 protein; assay: KD; method not stated; remark: listed apart in the source
[21] = molecular target: T1, human CD47 protein; assay: half-life of the complex; method not stated; remark: listed apart in the source
[22] = molecular target: T2, cynomolgus CD47 protein; assay: half-life of the complex; method not stated; remark: listed apart in the source
[23] = molecular target: T7, human CD47 on the cell surface (human); assay: flow cytometry, CHO cells stably overexpressing human CD47; positive control
T7 construct: whole, on cells; also called CHO-hCD47; CD47 on HT1080 tumor cells

T1 sequence (Q08722 19-139 limits assumed): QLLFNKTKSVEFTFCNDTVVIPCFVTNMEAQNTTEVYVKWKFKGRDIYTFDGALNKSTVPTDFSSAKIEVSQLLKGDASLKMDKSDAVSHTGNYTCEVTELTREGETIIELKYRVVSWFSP
T3 sequence (Q9NZQ7 19-238 limits assumed): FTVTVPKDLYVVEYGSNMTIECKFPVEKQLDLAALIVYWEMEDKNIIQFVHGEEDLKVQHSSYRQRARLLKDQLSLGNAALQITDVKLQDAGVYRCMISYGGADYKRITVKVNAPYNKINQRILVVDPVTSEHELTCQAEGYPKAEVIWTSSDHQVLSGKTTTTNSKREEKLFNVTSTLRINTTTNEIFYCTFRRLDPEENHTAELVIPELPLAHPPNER
T5 sequence (Q9EP73 19-238 limits assumed): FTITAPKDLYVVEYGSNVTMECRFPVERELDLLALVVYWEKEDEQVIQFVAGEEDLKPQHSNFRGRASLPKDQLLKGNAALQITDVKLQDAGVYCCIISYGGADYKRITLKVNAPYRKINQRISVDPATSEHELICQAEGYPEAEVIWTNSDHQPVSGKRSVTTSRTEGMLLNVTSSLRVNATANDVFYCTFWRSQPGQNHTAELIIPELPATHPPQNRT
T4 sequence (G7PSE7 entry or part of it): as the sequence (Q9NZQ7 19-238 limits assumed) above, with A33T, A34S, S62N, R68Q, Q82R, F173L, T185A, T192I, H215L counted along it

B1: CD47_P14D04_parent (antibody, V domains shown)
VH: EVQLLESGGGLVQPGGSLRLSCAASGFSFSTFTMNWVRQAPGKGLEWVSTISGTGGNTYYADSVKGRFTISRDNSKNTLYLQMNSLRAEDTAVYYCARRRSTVGSNGHSYWFDYWGQGTLVTVSS
VL: not shown
Kd [1]: 6.39 nM | Kd [2]: 9.7 nM | T1/2 [3]: 3.6 min | T1/2 [4]: 2.52 min

B2: PDL1_P06B05_parent (antibody, V domains shown)
VH: EVQLVESGGGLVKPGGSLRLSCAASGFTFSNAWMNWVRQAPGKGLEWVGRIKTKADGGTTDYAAPVKGRFTISRDDSKNTLYLQMNSLKTEDTAVYYCTTDPGSYWDSVYGGMDYWGQGTLVTVSS
VL: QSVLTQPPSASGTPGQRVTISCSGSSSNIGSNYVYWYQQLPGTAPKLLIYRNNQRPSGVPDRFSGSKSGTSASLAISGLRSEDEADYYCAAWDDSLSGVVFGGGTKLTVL
Kd [5]: 4.42 nM | Kd [6]: 8.07 nM | Kd [7]: 2.36 nM | Kd [8]: 3.11 nM | T1/2 [9]: 28.2 min | T1/2 [10]: 10.2 min | Kd [11]: 207 nM

B3: P06B05_D61S_Y62Q (antibody, V domains shown)
VH: B2 VH with D61S, Y62Q
VL: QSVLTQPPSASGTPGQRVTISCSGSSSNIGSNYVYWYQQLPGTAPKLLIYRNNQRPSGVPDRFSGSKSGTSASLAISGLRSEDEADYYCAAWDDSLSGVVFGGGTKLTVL
notes: Variant of P06B05
Kd [7]: 5.98 nM | Kd [8]: 3.73 nM

B4: P06B05_S104E (antibody, V domains shown)
VH: B2 VH with S104E
VL: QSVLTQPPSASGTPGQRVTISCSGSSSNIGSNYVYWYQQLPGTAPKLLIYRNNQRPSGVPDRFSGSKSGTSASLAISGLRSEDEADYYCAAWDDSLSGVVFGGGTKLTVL
notes: Variant of P06B05
Kd [7]: 0.8 nM | Kd [8]: 0.45 nM | Kd [12]: 23.1 nM

B5: P06B05_D61S_Y62A (antibody, V domains shown)
VH: B2 VH with D61S, Y62A
VL: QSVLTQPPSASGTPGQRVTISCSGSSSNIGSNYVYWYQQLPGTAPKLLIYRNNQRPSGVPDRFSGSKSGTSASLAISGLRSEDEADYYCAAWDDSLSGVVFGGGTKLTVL
notes: Variant of P06B05
Kd [7]: 6.71 nM | Kd [8]: < 1.19 nM

B6: P06B05_G112A (antibody, V domains shown)
VH: B2 VH with G112A
VL: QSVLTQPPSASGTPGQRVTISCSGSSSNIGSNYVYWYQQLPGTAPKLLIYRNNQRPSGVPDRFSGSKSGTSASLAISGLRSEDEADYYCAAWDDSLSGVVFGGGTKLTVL
notes: Variant of P06B05
Kd [7]: 3.71 nM | Kd [8]: 3.72 nM | Kd [12]: 131 nM

B7: P06B05_S104A (antibody, V domains shown)
VH: B2 VH with S104A
VL: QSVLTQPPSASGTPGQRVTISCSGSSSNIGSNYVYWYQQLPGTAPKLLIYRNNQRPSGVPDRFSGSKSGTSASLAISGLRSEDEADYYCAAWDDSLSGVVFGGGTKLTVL
notes: Variant of P06B05
Kd [7]: 3.5 nM | Kd [8]: 3.93 nM

B8: P06B05_G112S (antibody, V domains shown)
VH: B2 VH with G112S
VL: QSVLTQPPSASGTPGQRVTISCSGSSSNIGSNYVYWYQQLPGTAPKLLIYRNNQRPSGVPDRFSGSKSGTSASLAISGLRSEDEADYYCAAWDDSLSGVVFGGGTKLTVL
notes: Variant of P06B05
Kd [7]: 1.69 nM | Kd [8]: 1.74 nM | Kd [12]: 77.7 nM

B9: P06B05_S104Y (antibody, V domains shown)
VH: B2 VH with S104Y
VL: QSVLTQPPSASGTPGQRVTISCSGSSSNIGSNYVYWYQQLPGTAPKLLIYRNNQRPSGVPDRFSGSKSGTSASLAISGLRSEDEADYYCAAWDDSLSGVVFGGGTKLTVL
notes: Variant of P06B05
Kd [7]: 9.75 nM | Kd [8]: 5.79 nM

B10: P06B05_S104I (antibody, V domains shown)
VH: B2 VH with S104I
VL: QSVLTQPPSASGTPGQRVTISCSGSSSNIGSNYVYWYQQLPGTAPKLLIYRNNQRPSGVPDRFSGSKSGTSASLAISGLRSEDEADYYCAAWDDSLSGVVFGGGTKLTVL
notes: Variant of P06B05
Kd [7]: < 0.74 nM | Kd [8]: 0.99 nM

B11: P06B05_S104H (antibody, V domains shown)
VH: B2 VH with S104H
VL: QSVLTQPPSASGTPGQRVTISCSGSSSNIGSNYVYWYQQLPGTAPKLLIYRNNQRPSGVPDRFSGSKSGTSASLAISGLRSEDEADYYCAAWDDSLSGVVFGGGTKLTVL
notes: Variant of P06B05
Kd [7]: 7.9 nM | Kd [8]: 6.11 nM

B12: P06B05_D107Y (antibody, V domains shown)
VH: B2 VH with D107Y
VL: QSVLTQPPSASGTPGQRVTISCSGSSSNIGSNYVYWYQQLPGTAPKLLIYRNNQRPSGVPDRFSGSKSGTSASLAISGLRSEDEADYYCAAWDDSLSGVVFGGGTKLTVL
notes: Variant of P06B05
Kd [7]: 3.03 nM | Kd [8]: 3.23 nM

B13: P06B05_V109S (antibody, V domains shown)
VH: B2 VH with V109S
VL: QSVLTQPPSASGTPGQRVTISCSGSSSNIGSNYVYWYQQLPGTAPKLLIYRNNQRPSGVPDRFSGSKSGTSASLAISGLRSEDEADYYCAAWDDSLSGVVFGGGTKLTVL
notes: Variant of P06B05
Kd [7]: 76.5 nM | Kd [8]: > 100 nM

B14: P06B05_D56E_G57A (antibody, V domains shown)
VH: B2 VH with D56E, G57A
VL: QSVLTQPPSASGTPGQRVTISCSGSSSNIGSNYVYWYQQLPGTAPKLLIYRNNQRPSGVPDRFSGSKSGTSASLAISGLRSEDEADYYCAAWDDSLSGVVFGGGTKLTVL
notes: Variant of P06B05
Kd [7]: 95.5 nM | Kd [8]: 92.2 nM | Kd [12]: > 1500 nM

B15: P06B05_M113L (antibody, V domains shown)
VH: B2 VH with M113L
VL: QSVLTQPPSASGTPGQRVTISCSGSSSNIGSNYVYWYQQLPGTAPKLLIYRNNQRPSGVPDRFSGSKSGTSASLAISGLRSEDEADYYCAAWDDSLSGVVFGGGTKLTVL
notes: Variant of P06B05
Kd [7]: 6.82 nM | Kd [8]: 6.55 nM

B16: P06B05_D107S (antibody, V domains shown)
VH: B2 VH with D107S
VL: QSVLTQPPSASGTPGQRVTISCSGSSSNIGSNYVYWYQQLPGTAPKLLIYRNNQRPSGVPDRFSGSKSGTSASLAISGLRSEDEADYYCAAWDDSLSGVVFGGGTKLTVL
notes: Variant of P06B05
Kd [7]: 23.9 nM | Kd [8]: 26.3 nM

B17: P06B05_G103I (antibody, V domains shown)
VH: B2 VH with G103I
VL: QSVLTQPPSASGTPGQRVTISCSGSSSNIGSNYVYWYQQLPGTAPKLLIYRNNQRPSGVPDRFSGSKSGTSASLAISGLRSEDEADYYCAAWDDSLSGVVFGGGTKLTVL
notes: Variant of P06B05
Kd [7]: 8.06 nM | Kd [8]: 8.11 nM

B18: P06B05_Y105H (antibody, V domains shown)
VH: B2 VH with Y105H
VL: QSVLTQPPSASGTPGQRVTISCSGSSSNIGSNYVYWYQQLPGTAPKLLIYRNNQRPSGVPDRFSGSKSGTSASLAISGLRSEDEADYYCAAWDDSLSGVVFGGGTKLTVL
notes: Variant of P06B05
Kd [7]: 12.8 nM | Kd [8]: 6.58 nM

B19: P06B05_D61S_Y62S (antibody, V domains shown)
VH: B2 VH with D61S, Y62S
VL: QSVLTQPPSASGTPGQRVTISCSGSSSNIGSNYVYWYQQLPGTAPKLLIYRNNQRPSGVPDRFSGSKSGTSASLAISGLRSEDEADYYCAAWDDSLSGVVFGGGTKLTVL
notes: Variant of P06B05
Kd [7]: 6.1 nM | Kd [8]: 2.15 nM

B20: P06B05_D107L (antibody, V domains shown)
VH: B2 VH with D107L
VL: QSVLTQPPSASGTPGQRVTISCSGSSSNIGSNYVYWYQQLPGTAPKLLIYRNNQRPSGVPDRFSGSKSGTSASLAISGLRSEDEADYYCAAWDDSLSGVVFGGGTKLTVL
notes: Variant of P06B05
Kd [7]: 90.2 nM | Kd [8]: 83 nM

B21: PDL1_P06B05_245 (antibody, V domains shown)
VH: B2 VH with S104E
VL: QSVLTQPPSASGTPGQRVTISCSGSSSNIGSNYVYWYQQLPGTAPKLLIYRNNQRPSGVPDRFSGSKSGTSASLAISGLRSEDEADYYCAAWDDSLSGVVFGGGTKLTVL
notes: Monospecific antibody; also called anti-PD-L1 antibody P06B05_245
Kd [13]: 1.6 nM | Kd [14]: 1.6 nM | T1/2 [15]: 23.4 min | T1/2 [16]: 23.7 min

B22: PDL1_P06A09_parent (antibody, V domains shown)
VH: EVQLVESGGGLVKPGGSLRLSCAASGFTFSNAWMNWVRQAPGKGLEWVGRIKSESDGGTTDYAAPVKGRFTISRDDSKNTLYLQMNSLKTEDTAVYYCTTDYRIDDWGYPYPGMDYWGQGTLVTVSS
VL: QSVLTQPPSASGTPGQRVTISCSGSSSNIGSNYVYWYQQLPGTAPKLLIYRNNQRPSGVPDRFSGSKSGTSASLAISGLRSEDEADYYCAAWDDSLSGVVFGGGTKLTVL
Kd [5]: 2.97 nM | Kd [6]: 5.75 nM | T1/2 [9]: 5.13 min | T1/2 [10]: 2.79 min | Kd [11]: 113 nM

B23: CD47_P01A11_parent (antibody, V domains shown)
VH: QVQLVQSGAEVKKPGSSVKVSCKASGYTFTNYAISWVRQAPGQGLEWMGGISPLFGTANYAQKFQGRVTITADESTSTAYMELSSLRSEDTAVYYCARDGGRSSDVGWYVGAMDVWGQGTLVTVSS
VL: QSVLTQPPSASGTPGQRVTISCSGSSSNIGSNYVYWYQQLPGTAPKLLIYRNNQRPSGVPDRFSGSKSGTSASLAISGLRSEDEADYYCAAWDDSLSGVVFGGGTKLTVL
notes: also called P01A11_wt
Kd [2]: 1.02 nM | Kd [17]: 1.3 nM | T1/2 [4]: 21.1 min | Kd [18]: > 6800 nM

B24: CD47_P01A11_497 (antibody, V domains shown)
VH: B23 VH with Y27G, N31S, L54I, G100A, M113L
VL: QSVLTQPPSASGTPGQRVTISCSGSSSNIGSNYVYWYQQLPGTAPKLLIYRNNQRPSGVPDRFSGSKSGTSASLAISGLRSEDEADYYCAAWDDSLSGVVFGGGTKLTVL
notes: Monospecific antibody
Kd [19]: 497 nM | Kd [20]: 704 nM

B25: CD47_P01A11_75 (antibody, V domains shown)
VH: B23 VH with T30S, N31S, L54I, G100A, M113I
VL: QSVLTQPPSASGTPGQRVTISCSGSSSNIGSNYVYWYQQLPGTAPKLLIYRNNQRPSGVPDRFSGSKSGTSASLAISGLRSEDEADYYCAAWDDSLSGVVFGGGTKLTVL
notes: Monospecific antibody; also called anti-CD47 antibody P01A11_75
Kd [19]: 75 nM | Kd [20]: 105 nM | T1/2 [21]: 0.49 min | T1/2 [22]: 0.48 min | EC50 [23]: 0.98 nM

B26: CD47_P01A08_parent (antibody, V domains shown)
VH: B23 VH with T30S, S35T, L54I, V106G, Y109R, V110G, G111A, A112G, V115Y
VL: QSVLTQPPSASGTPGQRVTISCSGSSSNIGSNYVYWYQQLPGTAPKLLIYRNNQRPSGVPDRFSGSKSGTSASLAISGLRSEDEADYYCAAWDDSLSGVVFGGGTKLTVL
Kd [1]: 1.72 nM | Kd [2]: 2.08 nM | T1/2 [3]: 21.3 min | T1/2 [4]: 20.2 min

B27: PDL1_P04D09_parent (antibody, V domains shown)
VH: EVQLLESGGGLVQPGGSLRLSCAASGFTFSSYAMSWVRQAPGKGLEWVSAIGVRGGITYYADSVKGRFTISRDNSKNTLYLQMNSLRAEDTAVYYCARERSVGELVGIDWMDHWGQGTLVTVSS
VL: not shown
Kd [5]: 0.56 nM | Kd [6]: 1.15 nM | T1/2 [9]: 43.6 min | T1/2 [10]: 20.1 min | Kd [11]: 20.4 nM

B28: PDL1_P04D09_113 (antibody, V domains shown)
VH: B27 VH with W110Q
VL: not shown
Kd [13]: 1.7 nM | Kd [14]: 1.7 nM | T1/2 [15]: 22.2 min | T1/2 [16]: 23.4 min
